Patent US20210332350A1

Legend:
Experiment in all cases: cell-based or functional assay
[1] = target: Lactobacillus reuteri SSB (Lactobacillus reuteri)
[2] = target: Corynebacterium glutamicum SSB (Corynebacterium glutamicum)
[3] = target: E. coli single-strand DNA-binding protein (SSB) (Escherichia coli) (UniProt P0AGE0)
UniProt P0AGE0, sequence (P0AGE0 2-178 limits assumed): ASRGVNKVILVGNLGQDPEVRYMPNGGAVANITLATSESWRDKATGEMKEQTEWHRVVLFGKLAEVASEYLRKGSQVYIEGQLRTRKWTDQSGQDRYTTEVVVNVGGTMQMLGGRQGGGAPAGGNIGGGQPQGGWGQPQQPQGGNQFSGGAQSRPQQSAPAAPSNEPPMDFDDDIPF

| Substance | Allele Recombination (AR) Frequency in E. coli, bi-cistronic co-expression [1] | Allele Recombination (AR) Frequency in E. coli, bi-cistronic co-expression [2] | increase of AR frequency over the SSAP alone [2] | increase of recombination frequency over the SSAP alone [1] | Allele Recombination (AR) Frequency in E. coli, bi-cistronic co-expression [3] |
| --- | --- | --- | --- | --- | --- |
| Corynebacterium glutamicum recT | 0.044 | 0.245 | 10 fold |  |  |
| Lactobacillus reuteri recT1 | 0.003 | 0.000496 |  | 10 fold |  |
| λ β expressed from pARC8 in E. coli (no tag stated) (from UniProt P03698 1-261) |  |  |  |  | 0.09 |
